Results on two molecules are retold here after patent US20170226172A1.

For the assay, the target named is FGFR1c/alpha-klotho receptor complex, human, pre-formed (SPR analyte) (human) (UniProt P11362). Description: SPR competition: FGF23 on the chip surface, FGFR1c-alphaKlotho complex in solution mixed with the competitor; Ki listed at the upper right of the sheet.

B1: Wild Type Human FGF23 c-tail 180-251 (72 amino acid peptide) (peptide)
peptide: SAEDDSERDPLNVLKPRARMTPAPASCSQELPSAEDNSPMASDPLGVVRGGRVNTHAGGTGPEGCRPFAKFI
With B1, the Ki (commonly a measure of affinity in units of concentration, obtained from inhibition or displacement) turned out to be 31 nM.

B2: N-terminal FGF23 c-tail Fc fusion (Fc fusion, not shown: a dimerising Fc or GST; small tags and cut ends)
chain: SAEDDSERDPLNVLKPRARMTPAPASCSQELPSAEDNSPMASDPLGVVRGGRVNTHAGGTGPEGCRPFAKFI
B2: the inhibition constant (Ki) worked out at 46 nM.
